Source: patent publication US10745461B2, “Pulsed introduction of low-dose RANKL as a therapy for diet-induced atherosclerosis” (Saint Louis University, priority 2015, dated 2020)
Entries after “also recorded” stand apart in the source; their conditions may differ.

Legend:
[1] = system: FoxP3 induction in OT-I CD8 T-cells by osteoclasts; test: TcREG (FoxP3) induction in OT-I CD8 T-cells co-cultured with bone marrow-derived osteoclasts; type: cell-based, mice; settings: 10 ng/ml or 20 ng/ml TNFα, OVA
Method: It was also determined that IL-17 and TNFα suppresses TcREG induction by osteoclasts. […] Another possibility is that loss of estrogen leads to increased production of the pro-inflammatory cytokines by T-cells that increase osteoclast activity. Without being limited to any method of operation, it is actually expected that in the presence of pro-inflammatory cytokines osteoclasts fail to induce TcREG. As estrogen depletion lead to greater number of osteoclasts because of a decreased Fas ligand expression, the loss of TcREG induction and increased osteoclast numbers would tip the balance towards increased osteoclast resorption and net bone loss. To test fir this possibility, OC-iTcREG induction was measured in the presence of IL-17 and TNFα. […] To understand the underlying mechanism of how TNFα affects osteoclasts' ability to induce TcREG, the signals provided by osteoclasts to induce FoxP3 in the CD8 T-cells were investigated along with if these signals were affected by […].
The most common and well-studied costimulatory signals on antigen-presenting cells are CD80 (B7.1) and CD86 (B7.2). As CD80/CD86 double knockout mice are commercially available, osteoclasts were generated from bone marrow precursors of these mice. The CD80/CD86 null osteoclasts (as well as wild-type controls) were then used to prime OT-I T-cells in the presence and absence of antigen. […] OT-I CD8 T-cells activated by CD80/CD86 null osteoclasts produced IL-6, IL-2 and IFN-γ to levels indistinguishable from wild-type mice (FIG. 4B). Having ruled out CD80/CD86 as the costimulatory molecules, an osteoclast microarray dataset was queried for other costimulatory molecules expressed by osteoclasts. Osteoclasts that express CD200 and c-Mer were found. The role of CD200 was chosen for testing based on the phenotype of CD200^−/− mice and the reported role for CD200 in regulating TcREG.
The most, well characterized regulator of FoxP3 in T-cells is TGFβ. It has been previously shown that neutralization or addition of TGFβ has no effect on the induction of TcREG. Therefore identification of other pathways that can regulate the FoxP3 promoter in T-cells was sought. A number of previous studies have identified that the Notch signaling contributes to FoxP3 induction. To test if Notch signaling is important for TcREG induction by osteoclasts, the γ-Secretase inhibitor DAPT was initially used. Ligation of the Notch receptor by its ligand leads to cleavage of Notch by γ-secretase. […] Next, we identified the Notch ligands expressed in osteoclasts using reverse-transcription followed by PCR. […] Of the four, the osteoclast-precursors (bone marrow cells treated with M-CSF but not RANKL) express all of the ligands except DLL4 (FIG. 5C). To assess the role of DLL4 in TcREG (soluble) DLL4-Fc was added to OT-I CD8 T-cells prior to co-culturing with osteoclasts. […] To assess the role of DLL4 in vivo the induction experiments as described in FIG. 1 were performed: GFP negative (polyclonal) CD8 T-cells were purified by cell sorting and transferred into OT-II Rag^−/− mice. Two hours prior to RANKL treatment, DLL4-Fc or a control IgG1-Fc, were injected intravenously into the recipient mice, As described for FIG. 1, RANKL (0.125 mg/kg) was then administered on two consecutive days.
DLL-4 expression is repressed in the presence of […] and IL-17 but can be de-repressed by RANKL. […]

[2] = system: atherosclerotic lesions in the aortic root; test: WD-fed ovariectomized LDLR-/- and WT mice dosed with saline or IdRANKL: weight, cholesterol, atheroma, BV/TV; type: in vivo; settings: for atheroprotection / effects of OVX on atherogenesis / bone loss (BV/TV): LDLR-/- and WT mice; for reduction of plaque size compared to non-treated animals: WD, OVX; for body weight gain: ovariectomized WD-fed LDLR-/- and WT mice
Method: Ovariectomized (OVX) mice were treated with saline control or pulsed low-dose RANKL at 3 and 7 weeks post-OVX. RANKL was administered at 0.125 mg/kg twice at 0 and 24 hours for each treatment time point.
In order to define the contributions of menopause, LDL-cholesterol, and diet to postmenopausal morbidities, 10-week-old wild-type (WT) and (LDLR−/−) mice were placed on normal (ND) or western (WD) diet and we performed sham-surgery or ovariectomy two weeks after die diet switch. This regimen is intended to mimic the conditions of patients, who presumably already have fatty streaks in their vasculature by the time menopause ensues. All animals were sacrificed at 19 weeks of age, when hearts, long bones, and blood were collected.
It has been previously shown that low-dose RANKL (IdRANKL) induces TcREG in bone marrow. We postulated that induction of TcREG might be atheroprotective as it protects against osteoporosis in ovariectomized mice. To test that proposal, we first tested the ability of IdRANKL to modulate the systemic availability of proinflammatory cytokines. Thus, a new group of WT mice were fed WD, and subjected to sham or OVX surgeries, then dosed with saline or IdRANKL (two i.p. injections 3 and 7 weeks after OVX). […] We then, measured the ability of freshly isolated T-cells from peripheral blood to produce IL-17A and TNFα. […] Zoledronate is a bisphosphonate that is used clinically to prevent bone resorption (by suppressing osteoclasts). […] Without being limited to any particular theory of operation, we hypothesize that these cells contribute to postmenopausal comorbidities such as atherosclerosis and osteoporosis, and that immunosuppressing therapies such as pulsed IdRANKL will have cardio- and osteo-protective effects.
To test this hypothesis, a new group of LDLR−/− and WT mice were fed WD and ovariectomized as discussed previously, and dosed with saline or IdRANKL as above. […] The underlying mechanism for this limiting weight-gain following induction of TcREG is not known, but warrants further study. […] This beneficial effect was more pronounced in WI mice, where plaques were reduced by 80% in size, compared to non-treated animals. In LDLR−/− mice, the reduction was more modest at 35%. […] We conclude that IdRANKL likely exerts protective effects in the aorta and the bone via TcReG-mediated suppression of TEFF proinflammatory activity (e.g. production of IL-17A and TNFα).

B1: receptor activator of NF-κB ligand (protein, UniProt O35235 139-316, looked up)
Tumor necrosis factor ligand …: FSGAPAMMEGSWLDVAQRGKPEAQPFAHLTINAASIPSGSHKVTLSSWYHDRGWAKISNMTLSNGKLRVNQDGFYYLYANICFRHHETSGSVPTDYLQLMVYVVKTSIKIPSSHNLMKGGSTKNWSGNSEFHFYSINVGGFFKLRAGEEISIQVSNPSLLDPDQDATYFGAFKVQDID
modifications: GST tag
restoration of TcREG induction by additional RANKL in the presence of TNFα [1]: restores induction of TcREG; also recorded: the induction of TcREG was also restored | atheroprotection / effects of OVX on atherogenesis [2]: eliminated the effects of OVX on both osteoporosis and atherogenesis | total cholesterol in serum ([2]; LDLR-/- and WT mice (FIG. 20G)): does not significantly alter total cholesterol in serum | atheroprotection / effects of OVX on atherogenesis ([2]; listed as IdRANKL): atheroprotective | bone loss (BV/TV) ([2]; listed as IdRANKL): pronounced effect on preventing osteoporosis | bone loss (BV/TV) ([2]; listed as low-dose RANKL): prevents bone loss | serum cholesterol ([2]; LDLR-/- mice): slightly decreased | reduction of plaque size compared to non-treated animals ([2]; LDLR-/- mice): 35% | reduction of plaque size compared to non-treated animals ([2]; WT mice): 80% | body weight gain ([2]; listed as IdRANKL): ameliorated body weight gain | body weight gain ([2]; listed as low-dose RANKL): reduces body gain weight
